Assay results as given in PMC6101544.

Biological target: DNA polymerase beta (pol beta), [13CH3-Met,13CH3-Ile] labelled (UniProt P06746 1-335)
Assay: NMR 1H-13C HMQC chemical shift perturbation, methyl-TROSY CPMG; binary complex; 5 mM MgCl2; ~175 uM pol beta, 10% excess DNA; D2O buffer: 50 mM Tris-d11 pH 7.6, 150 mM KCl, 5 mM MgCl2 (none for apoenzyme), 1 mM CDTA, 1 mM DTT, 0.1 mM AEBSF, 0.04% NaN3, 50 uM DSS; 35 C for assignment of

GGCGAAGCCTGGTGCGAAGCACC (structured_DNA) [1-nt-gapped double hairpin DNA (templating dT in gap)]
binding result: binds
